The experiment concerns the target rabbit TF-FVIIa in the PT assay (rabbit thromboplastin with rabbit plasma) (rabbit).

For three molecules, fold increase of clotting time over baseline, PT assay in rabbit plasma (fold increase over baseline results are on record in US5834244.

B1: IV-32B (designed binder)
chain: VREVCSEQAEPGPCKALMKRWYFDVTEGKCAPFYYGGCYGNRNNFDTEEYCAAVCGSA
Consider B1, for which the fold increase of clotting time over baseline, PT assay in rabbit plasma (fold increase over baseline at 50 µM) was 1.2.

B2: IV-54C (designed binder)
chain: VREVCSEQAEPGPCRALMKRWYFDVTEGKCAPFVYGGCYGNRNNFDTEEYCAAVCGSA
In turn, B2 displayed a fold increase of clotting time over baseline, PT assay in rabbit plasma (fold increase over baseline at 50 µM) of 3.5.

B3: IV-49C (designed binder)
chain: VREVCSEQAEPGPCRALMKRWYFDVTEGKCAPFIYGGCYGNRNNFDTEEYCAAVCGSA
In turn, B3 gave a fold increase of clotting time over baseline, PT assay in rabbit plasma (fold increase over baseline at 50 µM) of 4.4.
